Test results: patent US20130324474A1 (Eli Lilly, published 2013)

T1: Recombinant Human GFRα-1/GDNF Rα-1 Fc Chimera (human, UniProt P56159 25-429)
T1 construct: Purchased Fc chimera; It was captured on protein A in Biacore and coated on the plate in ELISA; also called GFRα1-Fc; recombinant human GFRα1-Fc chimera, carrier-free; not shown: Fc part of a purchased Fc chimera
T1 sequence (looked up): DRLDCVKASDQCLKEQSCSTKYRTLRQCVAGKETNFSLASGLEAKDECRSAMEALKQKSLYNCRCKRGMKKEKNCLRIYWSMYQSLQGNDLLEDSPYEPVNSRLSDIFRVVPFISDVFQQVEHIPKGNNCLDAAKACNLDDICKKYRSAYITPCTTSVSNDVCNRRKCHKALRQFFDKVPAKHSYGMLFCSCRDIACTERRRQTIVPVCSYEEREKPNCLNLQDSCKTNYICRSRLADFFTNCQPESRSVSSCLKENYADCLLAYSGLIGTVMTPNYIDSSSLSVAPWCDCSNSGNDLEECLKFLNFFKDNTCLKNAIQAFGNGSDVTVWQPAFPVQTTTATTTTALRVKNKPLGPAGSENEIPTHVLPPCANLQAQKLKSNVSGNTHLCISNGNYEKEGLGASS

T2: Recombinant Rat GFRα-1/GDNF Rα-1 Fc Chimera (rat, UniProt Q62997 25-445)
T2 construct: Purchased Fc chimera; not shown: Fc part of a purchased Fc chimera
T2 sequence (looked up): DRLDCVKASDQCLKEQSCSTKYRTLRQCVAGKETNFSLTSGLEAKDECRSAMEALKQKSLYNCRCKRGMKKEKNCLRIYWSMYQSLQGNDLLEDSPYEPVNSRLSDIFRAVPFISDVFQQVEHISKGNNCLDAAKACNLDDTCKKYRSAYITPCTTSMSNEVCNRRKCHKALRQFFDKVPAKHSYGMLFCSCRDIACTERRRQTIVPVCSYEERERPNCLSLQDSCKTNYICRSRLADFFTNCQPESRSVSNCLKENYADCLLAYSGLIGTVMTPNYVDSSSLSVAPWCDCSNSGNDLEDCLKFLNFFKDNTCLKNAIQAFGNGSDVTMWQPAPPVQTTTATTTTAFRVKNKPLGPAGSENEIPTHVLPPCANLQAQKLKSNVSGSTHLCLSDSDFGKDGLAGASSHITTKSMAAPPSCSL


Assays:
[1] = molecular target: T1, Recombinant Human GFRα-1/GDNF Rα-1 Fc …; assay: ELISA, plate-bound human GFRα1-Fc; lower end of the 95% confidence range, n = 14
Procedure: (§1) Each well of a 96-well plate (Greiner 655081 Immunobind ELISA plates) is coated with 70 μl of human GFRα1 (recombinant human GFRα1-Fc chimera, carrier-free) at 1 μg/ml in carbonate buffer, pH 9.6. If an irrelevant receptor is coated, it is an irrelevant Fc chimera and is coated at the same concentration as GFRα1. The plates are sealed and incubated at 4° C. overnight. The wells are aspirated and washed twice with washing buffer (20 mM Tris (hydroxymethyl) aminomethane, pH 7.4, 0.15 M NaCl, 0.1% Tween-20), using an automatic plate washer. The plates are blocked with 200 μl blocking buffer per well (3% Carnation Instant milk in the above washing buffer) for at least 1 hour at room temperature. Plates are washed twice with washing buffer. […]
(§2) A 50 μl aliquot of horseradish peroxidase-conjugated streptavidin (Jackson ImmunoResearch, catalog #016-030-084), diluted 1:1000 in blocking buffer, is added to each well and incubated for 20-30 minutes at room temperature. […] The absorbance of the wells is read at 490 nm on a Molecular Devices SpectraMax250 plate reader. The average absorbance for the triplicate wells for each condition are determined, and the resulting values are processed for EC₅₀ calculation with Graph Pad Prism software to provide a 95% confidence range.

[2] = molecular target: T1, Recombinant Human GFRα-1/GDNF Rα-1 Fc …; assay: ELISA, plate-bound human GFRα1-Fc; upper end of the 95% confidence range, n = 14
Procedure: as §1, §2

[3] = molecular target: T2, Recombinant Rat GFRα-1/GDNF Rα-1 Fc …; assay: SPR (Biacore 2000), rat GFRα1-Fc captured on protein A, GDNFv as analyte, 1:1 Langmuir, 25 C
Procedure: A Biacore® 2000 instrument is used to measure the binding kinetics of GDNFv to human and rat GDNF family receptors (GFRα1 and GFRα2). Measurements are performed at 25° C. Samples are dissolved in HBS-EP buffer (150 mM sodium chloride, 3 mM EDTA, 0.005% (w/v) surfactant P-20, pH 7.4). Protein A, Staphylococcus aureus is immobilized on flow cells 1 to 4 of a CM4 sensor chip (GE Healthcare #BR-1005-39) at a level of ˜200 response units (RUs) using amine coupling chemistry to capture GFR Fc chimera (Recombinant Human GFRα-1/GDNF Rα-1 Fc Chimera; Recombinant Human GFRα-2/GDNF Rα-2 Fc Chimera; Recombinant Rat GFRα-1/GDNF Rα-1 Fc Chimera; Recombinant Mouse GFRα-2/GDNF Rα-2 Fc Chimera).
Binding is evaluated using multiple cycles. Each cycle consists of the following steps: 1) injection of about 10 μL of GFR at a concentration of ˜1.0 μg/mL and a flow rate of 10 μL/min., aiming at a capture of 120-150 RUs; 2) injection of 250 μL of GDNFv at a flow rate of 50 μL/min., in a final concentration rage between 10 nM and 0.04 nM followed by […]. for dissociation; and 3) regeneration using about 30 μL of 10 mM glycine hydrochloride, pH 1.5. Association and dissociation rates for each cycle are evaluated using a “1:1 (Langmuir) binding” model in the BIAevaluation software, version 4.1.

[4] = molecular target: T1, Recombinant Human GFRα-1/GDNF Rα-1 Fc …; assay: ELISA, plate-bound human GFRα1-Fc; upper end of the 95% confidence range, n = 4
Procedure: as §1, §2

[5] = molecular target: T1, Recombinant Human GFRα-1/GDNF Rα-1 Fc …; assay: ELISA, plate-bound human GFRα1-Fc; lower end of the 95% confidence range, n = 4
Procedure: as §1, §2

EC50 [1] [nM] | EC50 [2] [nM] | Kd [3] [nM] | koff [3] [s⁻¹] | kon [3] [M⁻¹ s⁻¹] | EC50 [4] [nM] | EC50 [5] [nM] | Binder
0.3 to 0.6 | 0.3 to 0.6 | 0.044 | 0.00024 | 5.6e+06 |  |  | CHO-Δ31-GDNF (SEQ ID NO: 8) (ligand, N-glycosylated at N49 (numbering of mature GDNF), Expressed in CHO cells; also called CHO-Δ31-GDNFv; WT CHO Δ31-GDNFv) RGQRGKNRGCVLTAIHLNVTDLGLGYETKEELIFRYCSGSCDAAETTYDKILKNLSRNRRLVSDKVGQACCRPIAFDDDLSFLDDNLVYHILRKHSAKRCGCI
 |  | 0.02 | 0.00019 | 9.4e+06 | 0.3 to 1.9 | 0.3 to 1.9 | CHO-Δ31-N38Q-D95E-GDNF (SEQ ID NO: 9) (ligand, N-glycosylated at N49 (numbering of mature GDNF), Expressed in CHO cells; also called CHO-Δ31-N38Q-D95E-GDNFv; GDNF variant 2) RGQRGKQRGCVLTAIHLNVTDLGLGYETKEELIFRYCSGSCDAAETTYDKILKNLSRNRRLVSEKVGQACCRPIAFDDDLSFLDDNLVYHILRKHSAKRCGCI
